Assays:
[1] = test system: TM-LE15 (truncated form of TMD2 in which the EGF 6 domain is removed)
[2] = test system: TMD2-I424A (TMD2 in which the isoleucine at position 424 is substituted with alanine)
[3] = test system: human TMD2 (wild-type soluble human thrombomodulin truncated immediately after EGF6, without signal peptide)
[4] = test system: human TMD1 (soluble thrombomodulin containing the amino terminal domain, EGF domain and ST domain, without signal peptide)

Sequence of TM-LE15 (truncated form of TMD2 in which the EGF 6 domain is removed) (chain, as listed by the source): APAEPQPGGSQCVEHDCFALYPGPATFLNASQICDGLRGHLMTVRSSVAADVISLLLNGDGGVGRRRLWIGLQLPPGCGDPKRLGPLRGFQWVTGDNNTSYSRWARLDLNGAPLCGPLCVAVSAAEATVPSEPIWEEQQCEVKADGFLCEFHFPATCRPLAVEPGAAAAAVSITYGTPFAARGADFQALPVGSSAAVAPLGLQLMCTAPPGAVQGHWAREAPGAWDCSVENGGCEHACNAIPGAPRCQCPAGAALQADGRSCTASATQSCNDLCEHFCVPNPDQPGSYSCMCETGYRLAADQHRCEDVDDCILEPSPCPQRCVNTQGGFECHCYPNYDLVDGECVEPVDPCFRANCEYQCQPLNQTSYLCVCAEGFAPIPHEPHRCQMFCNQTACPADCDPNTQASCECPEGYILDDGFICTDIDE

human thrombin
Vmax (mOD405/min) of human protein C activation [1]: 8.3 mOD405/min | Vmax (mOD405/min) of human protein C activation [2]: 6.9 mOD405/min | Vmax (mOD405/min) of human protein C activation [3]: 39.1 mOD405/min | Vmax (mOD405/min) of human protein C activation [4]: 43.3 mOD405/min

Source: patent US20110207670
